Reference: the nanobody polyreactivity screen of Harvey et al. (2022)

test: yeast display, Sf9 membrane polyspecificity reagent, FACS + sequencing; frameworks hold sequencing errors
Method in brief: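 Genes from sorted yeast were amplified by colony PCR, read by MiSeq 2 × 250 sequencing and filtered on CDR length. These cells carried a synthetic nanobody library in Saccharomyces cerevisiae BJ5465 and were sorted by FACS into low and high (top ~1%) gates on anti-HA and streptavidin fluorescence. Polyreactivity is labelled according to the gate of origin.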

Sequence | polyreactivity (PSR sort gate)
QVQLVESGGGLVQAGGSLRLSCAASGSTFFFNAMGWYRQAPGKERELVAGISSSGGSTHYADSVKGRFTISRDNAKNTVYLQMNSLKPEDTAVYYCNAQQYLPSEGDYWGQGTQVTVSS | low polyreactivity
QVQLVESGGGLVQAGGSLRLSCAASGSTFFGNTMGWYRQAPGKERELVATITRRGGSTYYADSVKGRFTMSRDNAKNTVYLQMNSLKPEDTAVYYCANRGPYTKYDYWGQGTQVTVSS | low polyreactivity
QVQLVESGGGLVQAGGSLRLSCAASGSTFFGYDMGWYRQAPGTERELVATINSGGSTYYADSVKGRFTISRDNAKYTVYLQMNSLKPEDTAVYYCAARPSYLYPFDRTGEYDYWGQGTQVTVSS | high polyreactivity
QVQLVESGGGLVQAGGSLRLSCAASGSTFFHYAMGWYRQAPGKERELVAAISTGGTTYYADSVKGRFTISRDNAKNTVYLQMNSLKPEDSAVYYCAAEAYGLSGLYYYWGQCTQVTVSS | high polyreactivity
QVQLVESGGGLVQAGGSLRLSCAASGSTFFINAMGWYRQGPGKERELVASISYSGGSTYYAHSVKGRFTISRDNAKNTVYLQLNSLKPEDTAVYYCNADVRVFLHYYKYNYWGQGTQVTVSS | low polyreactivity
QVQLVESGGGLVQAGGSLRLSCAASGSTFFLNAMGWYRQAPGKERELVAAISYSDSGTNYADSVKGRFTISRDNAKNTVYLQMNSLKPEDTAVYYCATAVRPWYVTSGNYWGQGTQVTVSS | low polyreactivity
QVQLVESGGGLVQAGGSLRLSCAASGSTFFLYAMGWYRQAPGKERELVAAISSGGSTNYADSVKGRFTISRDNAKNTVYLQMNSLKPEDTAVYYCAADAVRSHDYWGQGTQVTVSS | low polyreactivity
QVQLVESGGGLVQAGGSLRLSCAASGSTFFLYAMGWYRQAPGKERELVAAITWRSGRTYYADSVKGRFTISRDNAKNTVYLQMNSLKPEDTAVYYCAADYVLGEVVRYDYWGQGTQVTVSS | high polyreactivity
QVQLVESGGGLVQAGGSLRLSCAASGSTFFPYAMGWYRQAPGKERELVAAITSGGRTKYADSVKGRFTISRDNAMNTVYLQMNSLKPEDTAVYYCAARGLIKEYGGPYRRFGYWGQGTQVTVSS | high polyreactivity
QVQLVESGGGLVQAGGSLRLSCAASGSTFFPYAMGWYRQAPGKERELVAGISSDGGTSYADSVKGRFTISRDNAKNTVYLQMNSLKPEDTAVYYCAALQADRGGWYDYWGQGTQVTVSS | low polyreactivity
QVQLVESGGGLVQAGGSLRLSCAASGSTFFPYAMGWYRQAPGKERELVATINYSGGGTYYADSVKGRFTISRDNAKNTVYLQMNSLKPEDTAVYYCAKTLARFDRGYYWGQGTQVTVSS | low polyreactivity
QVQLVESGGGLVQAGGSLRLSCAASGSTFFSYAMGWYRQAPGKEREFVAAISWIDDGTYYADSVKGRFTISRDNAKNTVYLQMNSLKPEDTAVYYCAADIGAYRTWDYEYWGQGTQVTVSS | low polyreactivity
QVQLVESGGGLVQAGGSLRLSCAASGSTFFTNAMAWYRQSPGKERELVASISFSGGRTYYADSVKGRFTISRDNAKNTVYLQMNSLKPEDTAVYYCAARRYRYTRYDYWGQGTQVTVSS | high polyreactivity
QVQLVESGGGLVQAGGSLRLSCAASGSTFFTNAMGWYRQAPGKERELVAAITINDGSTFYADSVKGRFTITRDNAKNTVYLQMNSLKPEDTAVYYCNADGVDLYDYWGQGTQVTVSS | low polyreactivity
QVQLVESGGGLVQAGGSLRLSCAASGSTFFTNVMGWYRQAPGKERELVAVIRWRGSDTYYADSVKGRFTISRDNAKNTVYLQMNSLKPEDTAVYYSNAKESFYPTTGEQGYSYDYWGQGTQVTVSS | low polyreactivity
QVQLVESGGGLVQAGGSLRLSCAASGSTFFTYTMGWYRQAPGKERELVARITSSGGSTYYADSVKGRFTISRDNAKNTVYLQMNSLKPEDTAVYYCNARYYSHPTYDYWGQGTQVTVSS | high polyreactivity
QVQLVESGGGLVQAGGSLRLSCAASGSTFFVANAMGWYRQSPGKERELVAAISPSGGSTYYADSVKGRFTISRDNAKNTVYLQMNSLKPEDTAVYYCATSVRRFTRRYDYWGQGTQVTVSS | high polyreactivity
